The text below walks through data of article PMC4911631.

Experiment [1] concerns the target PRX1, recombinant (Chlamydomonas reinhardtii).
Experiment [2] shares this target. This is another data set of the same source.

Consider “calredoxin (CRX) Lys263Ile, recombinant (enzyme)”, for which the maximal electron transfer rate to PRX1 at saturating Ca2+ against WT CRX (Supplementary Fig. 1b) in experiment [1] worked out at 3 fold.

As to “calredoxin (CRX), wild type, recombinant (enzyme)”, in experiment [2], the reduction of PRX1 by CRX (NADPH oxidation) without Ca2+ (EGTA added) against with Ca2+ is 10 fold.
